Experiments:
[1] = biological target: T1, SARS-CoV-2 RBD as crystallised with 3G10 and 3C11 (SARS-CoV-2, prototype (WH-1)); assay: crystal structure; conditions: both partners purified
T1 construct: also called prototype (PT) RBD

[2] = biological target: T2, SARS-CoV-2 RBD (receptor binding domain) with Avi-tag, biotinylated (SARS-CoV-2, WH-1 (Wuhan-Hu-1, MN908947), UniProt P0DTC2); assay: BLI; biotinylated RBD (5 μg/mL in PBST: PBS, 0.02% Tween 20, 0.1% BSA) immobilised on streptavidin biosensors; antibodies 500-7.8125 nM, 120 s association, 300 s dissociation; 1:1 binding model; conditions: both partners purified
T2 construct: also called recombinant RBD protein probe; biotinylated RBD; not shown: Avi-tag, C-terminal, kept

[3] = biological target: T2, SARS-CoV-2 RBD (receptor binding …); assay: cell-based or functional assay

Binder	binding result [1]	Kd [2] [nM]	IC50 of neutralisation of SARS-CoV-2 pseudovirus (WH-1), luciferase read-out on Vero cells [3] [µg/mL]	IC50 of neutralisation of authentic SARS-CoV-2 WH-1 virus, CPE-based method on Vero cells [3] [µg/mL]
antibody 3C11 (antibody, V domains shown) VH: EVQLVESGGGLVQPGGSLRLSCAASGFAFSTYEMNWVRQAPGKGLEWVSYIHNSGNPVYYADSVKGRFTISRDNAENSLYLQMNSLRAEDTAIYYCARALRYSTSWYDYWGQGTLVTVSS VL: EIVLTQSPVSLSLSPGERATLSCRASQSVSSYLAWYQQKPGQAPRLFIYDASKRATGIPARFSGSGSGTDFTLTISSLEPEDFAVYYCQQRSNWPRTFGQGTKVEIK	binds	5.29	< 0.1	0.028
antibody 3G10 (antibody, V domains shown) VH: EVQLVESGGGLVQPGESLRLSCAASGLTVSSNYMSWVRQAPGKGLEWVSVIYAGGSTFYADSVKGRFTISRDNSKNTLYLQMNSLRAEDMAIYYCARDLSYYGMDVWGQGTTVTVSS VL: DIQLTQFPFSLSASVGDRVTITCRASQGISTYLAWYQQKPGRAPKLLIYAASTLQSGVPSRFSGSGSGTEFTLTISSLQPEDFATYYCQLLNSYPVHFGQGTKLEIK	binds	1.37	< 0.1	0.028
antibody 1D7 (antibody, V domains shown) VH: QVQLVQSGAEVKTPGSSVKVSCKASGGSFSNYAISWVRQAPGQGLEWMGRIIATLGISNYAQKFQGRVTMTADKSTSTAYMELSSLRSEDTAVYYCASPITNFGVLIEVDAFHIWGQGTMVTVSS VL: EIVLTQSPFTLSLSPGERATLSCGASQSVSSSYLAWYQQKPGLAPRLLIYDGSSRATDIPDRFSGSGSGTDFTLTISRLEPEDFAMYYCQQYSTSPLTFGGGTKVEIK	–	< 0.001	< 0.1	0.009
